The results in this text go back to patent publication US20250213666A1 (UNIVERSITY OF CINCINNATI, published 2025).

The target of this experiment is T1, Intimin-spike fusion protein (Intimin-Spike-RBD) surface displayed on E. coli Nissle 1917 (SARS-CoV-2).
T1 construct: also called pInt-spike; pInt-Spike-RBD
In words: cell aggregation assay (OD600) of nanobody-bearing EcN with spike-bearing EcN.

B1: Lpp-OmpA-VHH72 nanobody (pLpp-OmpA-VHH72), surface displayed on E. coli Nissle 1917 or on its OMVs (VHH)
chain: CSSNAKIDQGINNNGPTHENQLGAGAFGGYQVNPYVGFEMGYDWLGRMPYKGSVENGAYKAQGVQLTAKLGYPITDDLDIYTRLGGMVWRADTKSNVYGKNHDTGVSPVFAGGVEYAITPEIATRKLENLYFQGTRQVQLQESGGGLVQAGGSLRLSCAASGRTFSEYAMGWFRQAPGKEREFVATISWSGGSTYYTDSVKGRFTISRDNAKNTVYLQMNSLKPDDTAVYYCAAAGLGTVVSEWDYDYDYWGQGTQVTVSSGSGSENLYFQGDYKDDDDKWSHPQFEKSR
notes: also called pLpp-OmpA-VHH72 Nb; Lpp-OmpA-VHH72 Nb
B1: the binding result was “no binding”.
